Experimental findings from publication PMC3677097, “Structural Basis of Brr2-Prp8 Interactions and Implications for U5 snRNP Biogenesis and the Spliceosome Active Site” (Structure(London, England:1993), 2013) are described below.

In the experiment the target is Prp8^885–2413 tagged with a calmodulin-binding peptide (CBP) at the N terminus (yeast, UniProt P33334 885-2413). Put plainly: pull-down; calmodulin pull-down; CBP-tagged Prp8^885-2413 or its complexes as bait (0.5 μM), prey 1.0 μM; overnight at 4°C in 20 mM HEPES K+ pH 7.8, 300 mM KCl, 1 mM Mg(OAc)2, 2 mM CaCl2, 10 mM β-mercaptoethanol; calmodulin resin 3 hr, eluted with EGTA; SDS-PAGE. The conditions noted are these: both partners purified.
Prp8^885–2413 tagged with a calmodulin-binding peptide (CBP) at the N terminus, sequence (P33334 885-2413): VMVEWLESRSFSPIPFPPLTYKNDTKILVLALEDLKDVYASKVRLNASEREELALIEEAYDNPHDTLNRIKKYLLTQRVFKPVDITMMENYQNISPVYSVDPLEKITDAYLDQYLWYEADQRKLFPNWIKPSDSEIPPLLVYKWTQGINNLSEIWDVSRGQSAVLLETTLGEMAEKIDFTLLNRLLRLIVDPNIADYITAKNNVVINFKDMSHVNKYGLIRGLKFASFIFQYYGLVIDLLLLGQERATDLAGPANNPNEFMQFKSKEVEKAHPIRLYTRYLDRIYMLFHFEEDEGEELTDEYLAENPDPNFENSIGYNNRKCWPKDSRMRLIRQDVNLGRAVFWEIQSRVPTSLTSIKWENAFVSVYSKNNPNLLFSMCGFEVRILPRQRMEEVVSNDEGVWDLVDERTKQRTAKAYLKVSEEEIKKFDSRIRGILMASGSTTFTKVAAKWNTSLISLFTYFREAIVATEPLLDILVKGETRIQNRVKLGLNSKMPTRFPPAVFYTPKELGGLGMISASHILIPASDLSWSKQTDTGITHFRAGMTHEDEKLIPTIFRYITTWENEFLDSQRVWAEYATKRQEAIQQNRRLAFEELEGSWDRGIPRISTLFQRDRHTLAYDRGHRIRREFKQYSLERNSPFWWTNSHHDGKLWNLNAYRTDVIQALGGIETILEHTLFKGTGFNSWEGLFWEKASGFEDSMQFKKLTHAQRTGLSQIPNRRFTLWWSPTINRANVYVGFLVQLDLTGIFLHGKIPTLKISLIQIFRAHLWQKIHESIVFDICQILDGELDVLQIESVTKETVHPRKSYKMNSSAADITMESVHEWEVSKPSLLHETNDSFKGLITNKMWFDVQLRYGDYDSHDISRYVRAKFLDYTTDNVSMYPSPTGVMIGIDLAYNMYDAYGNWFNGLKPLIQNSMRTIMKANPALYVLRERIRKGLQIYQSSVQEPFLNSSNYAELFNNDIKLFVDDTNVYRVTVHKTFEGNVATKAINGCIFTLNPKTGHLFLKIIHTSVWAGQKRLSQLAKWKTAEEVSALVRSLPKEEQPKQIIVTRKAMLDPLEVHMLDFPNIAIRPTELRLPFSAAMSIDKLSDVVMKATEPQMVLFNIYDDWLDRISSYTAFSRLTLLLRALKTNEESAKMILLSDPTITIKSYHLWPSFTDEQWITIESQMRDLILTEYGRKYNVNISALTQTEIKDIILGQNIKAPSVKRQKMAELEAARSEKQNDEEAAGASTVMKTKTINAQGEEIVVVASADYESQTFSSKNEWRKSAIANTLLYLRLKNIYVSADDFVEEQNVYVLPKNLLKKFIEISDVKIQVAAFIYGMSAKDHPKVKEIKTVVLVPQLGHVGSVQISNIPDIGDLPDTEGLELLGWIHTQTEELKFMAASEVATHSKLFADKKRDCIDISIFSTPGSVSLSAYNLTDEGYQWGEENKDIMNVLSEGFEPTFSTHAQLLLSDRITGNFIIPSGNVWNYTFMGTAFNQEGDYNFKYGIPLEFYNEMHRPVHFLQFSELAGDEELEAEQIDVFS

B1: Aar2ΔC (missing 23 C-terminal residues) (domain or fragment, yeast, UniProt P32357 1-332, looked up)
chain: MNTVPFTSAPIEVTIGIDQYSFNVKENQPFHGIKDIPIGHVHVIHFQHADNSSMRYGYWFDCRMGNFYIQYDPKDGLYKMMEERDGAKFENIVHNFKERQMMVSYPKIDEDDTWYNLTEFVQMDKIRKIVRKDENQFSYVDSSMTTVQENELLKSSLQKAGSKMEAKNEDDPAHSLNYTVINFKSREAIRPGHEMEDFLDKSYYLNTVMLQGIFKNSSNYFGELQFAFLNAMFFGNYGSSLQWHAMIELICSSATVPKHMLDKLDEILYYQIKTLPEQYSDILLNERVWNICLYSSFQKNSLHNTEKIMENKYPELLGKDNEDDALIYGISD
notes: Aar2, yeast, missing 23 C-terminal residues (so in the source)
As to B1, the binding result is reported as “binds”.

B2: Aar2 (natural protein, yeast, UniProt P32357 1-355, looked up)
chain: MNTVPFTSAPIEVTIGIDQYSFNVKENQPFHGIKDIPIGHVHVIHFQHADNSSMRYGYWFDCRMGNFYIQYDPKDGLYKMMEERDGAKFENIVHNFKERQMMVSYPKIDEDDTWYNLTEFVQMDKIRKIVRKDENQFSYVDSSMTTVQENELLKSSLQKAGSKMEAKNEDDPAHSLNYTVINFKSREAIRPGHEMEDFLDKSYYLNTVMLQGIFKNSSNYFGELQFAFLNAMFFGNYGSSLQWHAMIELICSSATVPKHMLDKLDEILYYQIKTLPEQYSDILLNERVWNICLYSSFQKNSLHNTEKIMENKYPELLGKDNEDDALIYGISDEERDDEDDEHNPTIVGGLYYQRP
notes: Aar2, U5 snRNP assembly factor, yeast; also called U5 snRNP assembly factor Aar2
As for B2, the binding result is “binds”.
